Measurements taken from article PMC12608037.

Key:
[1] = tested on: YihW (CsqR) K-12 MG1655 (Escherichia coli K-12 MG1655); test: EMSA; conditions: 50 mM Tris-Cl (pH not stated), 100 mM KCl, 50% glycerol, 1 mM EDTA (1x); 0.5 pmol DNA, 2-24 pmol YihW; 30 or 37 C, 30 min; 5% PAGE in 1x TBE; scale: protein:DNA molar ratio for complete binding
[2] = tested on: YihW (CsqR) Nissle 1917 (Escherichia coli Nissle 1917); test: EMSA; conditions: 50 mM Tris-Cl (pH not stated), 100 mM KCl, 50% glycerol, 1 mM EDTA (1x), 0.5 pmol DNA, 2-24 pmol YihW, 30 or 37 C, 30 min, 5% PAGE in 1x TBE, scale: protein:DNA molar ratio for complete binding

Substance | binding signal [1] | binding signal ([2]; 30 C, equal efficiency to Nissle fragment) | binding signal ([2]; 30 C) | binding signal ([2]; 37 C, some DNA free at 48x, weaker than K-12 fragment)
yihU/V intergenic region, K-12 MG1655 | 16 | 24 |  | 
yihU/V intergenic region, Nissle 1917 | 16 |  | 24 | > 48
